Experimental data published in IntAct's records for PubMed 17306257.

B1: SH3 domain-binding protein 2 (Homo sapiens), P78314 (parent)
chain: MAAEEMHWPVPMKAIGAQNLLTMPGGVAKAGYLHKKGGTQLQLLKWPLRFVIIHKRCVYYFKSSTSASPQGAFSLSGYNRVMRAAEETTSNNVFPFKIIHISKKHRTWFFSASSEEERKSWMALLRREIGHFHEKKDLPLDTSDSSSDTDSFYGAVERPVDISLSPYPTDNEDYEHDDEDDSYLEPDSPEPGRLEDALMHPPAYPPPPVPTPRKPAFSDMPRAHSFTSKGPGPLLPPPPPKHGLPDVGLAAEDSKRDPLCPRRAEPCPRVPATPRRMSDPPLSTMPTAPGLRKPPCFRESASPSPEPWTPGHGACSTSSAAIMATATSRNCDKLKSFHLSPRGPPTSEPPPVPANKPKFLKIAEEDPPREAAMPGLFVPPVAPRPPALKLPVPEAMARPAVLPRPEKPQLPHLQRSPPDGQSFRSFSFEKPRQPSQADTGGDDSDEDYEKVPLPNSVFVNTTESCEVERLFKATSPRGEPQDGLYCIRNSSTKSGKVLVVWDETSNKVRNYRIFEKDSKFYLEGEVLFVSVGSMVEHYHTHVLPSHQSLLLRHPYGYTGPR

Variants of: B1
Settings: with sh3k1_human SH3KBP1, Q96B97
Chain of sh3k1_human SH3KBP1, Q96B97 (Q96B97 whole entry): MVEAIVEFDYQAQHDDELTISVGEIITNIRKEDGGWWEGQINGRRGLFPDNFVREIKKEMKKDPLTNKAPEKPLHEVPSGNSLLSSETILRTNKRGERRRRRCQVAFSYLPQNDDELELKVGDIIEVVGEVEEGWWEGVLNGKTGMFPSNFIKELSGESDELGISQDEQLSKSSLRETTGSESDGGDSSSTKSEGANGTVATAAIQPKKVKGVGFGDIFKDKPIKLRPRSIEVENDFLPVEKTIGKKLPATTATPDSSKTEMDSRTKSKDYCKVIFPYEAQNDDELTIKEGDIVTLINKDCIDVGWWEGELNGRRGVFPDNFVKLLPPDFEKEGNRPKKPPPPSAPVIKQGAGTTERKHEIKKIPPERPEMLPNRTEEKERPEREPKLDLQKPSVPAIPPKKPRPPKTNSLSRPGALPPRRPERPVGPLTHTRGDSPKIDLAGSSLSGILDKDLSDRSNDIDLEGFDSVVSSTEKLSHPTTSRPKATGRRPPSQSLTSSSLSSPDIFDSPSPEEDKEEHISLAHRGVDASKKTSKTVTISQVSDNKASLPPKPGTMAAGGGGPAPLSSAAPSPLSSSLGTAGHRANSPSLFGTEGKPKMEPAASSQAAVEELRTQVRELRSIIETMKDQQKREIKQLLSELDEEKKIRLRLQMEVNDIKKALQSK

| Variant | effect of a mutation on the interaction |
| --- | --- |
| MAAEEMHWPVPMKAIGAQNLLTMPGGVAKAGYLHKKGGTQLQLLKWPLRFVIIHKRCVYYFKSSTSASPQGAFSLSGYNRVMRAAEETTSNNVFPFKIIHISKKHRTWFFSASSEEERKSWMALLRREIGHFHEKKDLPLDTSDSSSDTDSFYGAVERPVDISLSPYPTDNEDYEHDDEDDSYLEPDSPEPGRLEDALMHPPAYPPPPVPTPAKPAFSDMPRAHSFTSKGPGPLLPPPPPKHGLPDVGLAAEDSKRDPLCPRRAEPCPRVPATPRRMSDPPLSTMPTAPGLRKPPCFRESASPSPEPWTPGHGACSTSSAAIMATATSRNCDKLKSFHLSPRGPPTSEPPPVPANKPKFLKIAEEDPPREAAMPGLFVPPVAPRPPALKLPVPEAMARPAVLPRPEKPQLPHLQRSPPDGQSFRSFSFEKPRQPSQADTGGDDSDEDYEKVPLPNSVFVNTTESCEVERLFKATSPRGEPQDGLYCIRNSSTKSGKVLVVWDETSNKVRNYRIFEKDSKFYLEGEVLFVSVGSMVEHYHTHVLPSHQSLLLRHPYGYTGPR [R213A] | decreasing interaction |
